Results as given in patent US20240270846A1 (published 2024).
Changes are numbered by the printed parent chain. Names may count otherwise.

B1: GLS3000 Q27L one-arm antibody (H chain CE115HA000) (antibody, human IgG1, kappa, L234A L235A, N297A, name in Kabat numbering)
heavy: QVQLVESGGGVVQPGRSLRLSCAASGFTFSNAWMHWVRQAPGKGLEWVAQIKAKSNNYATYYAESVKGRFTISRDDSKNSLYLQMNSLKTEDTAVYYCRYVHYGAYYGVDAWGQGTTVTVSSASTKGPSVFPLAPSSKSTSGGTAALGCLVKDYFPEPVTVSWNSGALTSGVHTFPAVLQSSGLYSLSSVVTVPSSSLGTQTYICNVNHKPSNTKVDKKVEPKSCDKTHTCPPCPAPEAAGGPSVFLFPPKPKDTLMISRTPEVTCVVVDVSHEDPEVKFNWYVDGVEVHNAKTKPREEQYASTYRVVSVLTVLHQDWLNGKEYKCKVSNKALPAPIEKTISKAKGQPREPQVYTLPPSRCELTKNQVSLSCAVKGFYPSDIAVEWESNGQPENNYKTTPPVLDSDGSFFLVSKLTVDKSRWQQGNVFSCSVMHEALHNHYTQKSLSLSPDYKDDDDK
chain: EPKSSDKTHTCPPCPAPELLGGPSVFLFPPKPKDTLMISRTPEVTCVVVDVSHEDPEVKFNWYVDGVEVHNAKTKPREEQYNSTYRVVSVLTVLHQDWLNGKEYKCKVSNKALPAPIEKTISKAKGQPREPQVCTLPPSRDELTKNQVSLWCLVKGFYPSDIAVEWESNGQPENNYKTTPPVLDSDGSFFLYSKLTVDKSRWQQGNVFSCSVMHEALHNRYTQKSLSLSP
light: DIVMTQSPLSLPVTPGEPASISCRSSLSLVHSNRNTYLHWYQQKPGQAPRLLIYKVSNRFSGVPDRFSGSGSGTDFTLKISRVEAEDVGVYYCGQGTQVPYTFGQGTKLEIKRTVAAPSVFIFPPSDEQLKSGTASVVCLLNNFYPREAKVQWKVDNALQSGNSQESVTEQDSKDSTYSLSSTLTLSKADYEKHKVYACEVTHQGLSSPVTKSFNRGEC
notes: one-arm antibody
B2: GLS3000 R24S one-arm antibody (H chain CE115HA000) (antibody, human IgG1, kappa, L234A L235A, N297A, name in Kabat numbering)
heavy: B1 heavy
chain: B1 chain
light: B1 light with R24S, L27Q
notes: one-arm antibody
B3: GLS3000 R29Y one-arm antibody (H chain CE115HA000) (antibody, human IgG1, kappa, L234A L235A, N297A, name in Kabat numbering)
heavy: B1 heavy
chain: B1 chain
light: B1 light with L27Q, R34Y
notes: one-arm antibody
B4: GLS3000 R54D one-arm antibody (H chain CE115HA000) (antibody, human IgG1, kappa, L234A L235A, N297A, name in Kabat numbering)
heavy: B1 heavy
chain: B1 chain
light: B1 light with L27Q, R59D
notes: one-arm antibody
B5: GLS3000 R24T one-arm antibody (H chain CE115HA000) (antibody, human IgG1, kappa, L234A L235A, N297A, name in Kabat numbering)
heavy: B1 heavy
chain: B1 chain
light: B1 light with R24T, L27Q
notes: one-arm antibody
B6: GLS3000 S25A one-arm antibody (H chain CE115HA000) (antibody, human IgG1, kappa, L234A L235A, N297A, name in Kabat numbering)
heavy: B1 heavy
chain: B1 chain
light: B1 light with S25A, L27Q
notes: one-arm antibody
B7: GLS3000 R29G one-arm antibody (H chain CE115HA000) (antibody, human IgG1, kappa, L234A L235A, N297A, name in Kabat numbering)
heavy: B1 heavy
chain: B1 chain
light: B1 light with L27Q, R34G
notes: one-arm antibody
B8: GLS3000 R29D one-arm antibody (H chain CE115HA000) (antibody, human IgG1, kappa, L234A L235A, N297A, name in Kabat numbering)
heavy: B1 heavy
chain: B1 chain
light: B1 light with L27Q, R34D
notes: one-arm antibody
B9: GLS3000 S25M one-arm antibody (H chain CE115HA000) (antibody, human IgG1, kappa, L234A L235A, N297A, name in Kabat numbering)
heavy: B1 heavy
chain: B1 chain
light: B1 light with S25M, L27Q
notes: one-arm antibody
B10: GLS3000 R29V one-arm antibody (H chain CE115HA000) (antibody, human IgG1, kappa, L234A L235A, N297A, name in Kabat numbering)
heavy: B1 heavy
chain: B1 chain
light: B1 light with L27Q, R34V
notes: one-arm antibody
B11: GLS3000 S25E one-arm antibody (H chain CE115HA000) (antibody, human IgG1, kappa, L234A L235A, N297A, name in Kabat numbering)
heavy: B1 heavy
chain: B1 chain
light: B1 light with S25E, L27Q
notes: one-arm antibody
B12: GLS3000 R24E one-arm antibody (H chain CE115HA000) (antibody, human IgG1, kappa, L234A L235A, N297A, name in Kabat numbering)
heavy: B1 heavy
chain: B1 chain
light: B1 light with R24E, L27Q
notes: one-arm antibody
B13: GLS3000 R29I one-arm antibody (H chain CE115HA000) (antibody, human IgG1, kappa, L234A L235A, N297A, name in Kabat numbering)
heavy: B1 heavy
chain: B1 chain
light: B1 light with L27Q, R34I
notes: one-arm antibody
B14: GLS3000 R24G one-arm antibody (H chain CE115HA000) (antibody, human IgG1, kappa, L234A L235A, N297A, name in Kabat numbering)
heavy: B1 heavy
chain: B1 chain
light: B1 light with R24G, L27Q
notes: one-arm antibody
B15: GLS3000 R29L one-arm antibody (H chain CE115HA000) (antibody, human IgG1, kappa, L234A L235A, N297A, name in Kabat numbering)
heavy: B1 heavy
chain: B1 chain
light: B1 light with L27Q, R34L
notes: one-arm antibody
B16: GLS3000 R54A one-arm antibody (H chain CE115HA000) (antibody, human IgG1, kappa, L234A L235A, N297A, name in Kabat numbering)
heavy: B1 heavy
chain: B1 chain
light: B1 light with L27Q, R59A
notes: one-arm antibody
B17: GLS3000 R29T one-arm antibody (H chain CE115HA000) (antibody, human IgG1, kappa, L234A L235A, N297A, name in Kabat numbering)
heavy: B1 heavy
chain: B1 chain
light: B1 light with L27Q, R34T
notes: one-arm antibody
B18: GLS3000 S25D one-arm antibody (H chain CE115HA000) (antibody, human IgG1, kappa, L234A L235A, N297A, name in Kabat numbering)
heavy: B1 heavy
chain: B1 chain
light: B1 light with S25D, L27Q
notes: one-arm antibody
B19: GLS3000 R24D one-arm antibody (H chain CE115HA000) (antibody, human IgG1, kappa, L234A L235A, N297A, name in Kabat numbering)
heavy: B1 heavy
chain: B1 chain
light: B1 light with R24D, L27Q
notes: one-arm antibody
B20: GLS3000 Q27R one-arm antibody (H chain CE115HA000) (antibody, human IgG1, kappa, L234A L235A, N297A, name in Kabat numbering)
heavy: B1 heavy
chain: B1 chain
light: B1 light with L27R
notes: one-arm antibody
B21: GLS3000 R24A one-arm antibody (H chain CE115HA000) (antibody, human IgG1, kappa, L234A L235A, N297A, name in Kabat numbering)
heavy: B1 heavy
chain: B1 chain
light: B1 light with R24A, L27Q
notes: one-arm antibody
B22: GLS3000 R29S one-arm antibody (H chain CE115HA000) (antibody, human IgG1, kappa, L234A L235A, N297A, name in Kabat numbering)
heavy: B1 heavy
chain: B1 chain
light: B1 light with L27Q, R34S
notes: one-arm antibody
B23: GLS3000 R24P one-arm antibody (H chain CE115HA000) (antibody, human IgG1, kappa, L234A L235A, N297A, name in Kabat numbering)
heavy: B1 heavy
chain: B1 chain
light: B1 light with R24P, L27Q
notes: one-arm antibody
B24: GLS3000 R29A one-arm antibody (H chain CE115HA000) (antibody, human IgG1, kappa, L234A L235A, N297A, name in Kabat numbering)
heavy: B1 heavy
chain: B1 chain
light: B1 light with L27Q, R34A
notes: one-arm antibody
B25: GLS3000 R24Y one-arm antibody (H chain CE115HA000) (antibody, human IgG1, kappa, L234A L235A, N297A, name in Kabat numbering)
heavy: B1 heavy
chain: B1 chain
light: B1 light with R24Y, L27Q
notes: one-arm antibody
B26: GLS3000 S25L one-arm antibody (H chain CE115HA000) (antibody, human IgG1, kappa, L234A L235A, N297A, name in Kabat numbering)
heavy: B1 heavy
chain: B1 chain
light: B1 light with S25L, L27Q
notes: one-arm antibody
B27: GLS3000 Q27P one-arm antibody (H chain CE115HA000) (antibody, human IgG1, kappa, L234A L235A, N297A, name in Kabat numbering)
heavy: B1 heavy
chain: B1 chain
light: B1 light with L27P
notes: one-arm antibody
B28: GLS3000 S25P one-arm antibody (H chain CE115HA000) (antibody, human IgG1, kappa, L234A L235A, N297A, name in Kabat numbering)
heavy: B1 heavy
chain: B1 chain
light: B1 light with S25P, L27Q
notes: one-arm antibody
B29: GLS3000 R29P one-arm antibody (H chain CE115HA000) (antibody, human IgG1, kappa, L234A L235A, N297A, name in Kabat numbering)
heavy: B1 heavy
chain: B1 chain
light: B1 light with L27Q, R34P
notes: one-arm antibody
B30: GLS3000 R24Q one-arm antibody (H chain CE115HA000) (antibody, human IgG1, kappa, L234A L235A, N297A, name in Kabat numbering)
heavy: B1 heavy
chain: B1 chain
light: B1 light with R24Q, L27Q
notes: one-arm antibody
B31: GLS3000 S25I one-arm antibody (H chain CE115HA000) (antibody, human IgG1, kappa, L234A L235A, N297A, name in Kabat numbering)
heavy: B1 heavy
chain: B1 chain
light: B1 light with S25I, L27Q
notes: one-arm antibody

Target: T1, CD3 epsilon homodimer protein (UniProt P07766 23-126)
T1 construct: also called CD3 (CD3 epsilon)
T1 sequence (P07766 23-126): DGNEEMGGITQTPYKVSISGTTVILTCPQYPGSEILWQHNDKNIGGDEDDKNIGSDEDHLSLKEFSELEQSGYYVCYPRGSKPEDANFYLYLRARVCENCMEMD
Assay: SPR, CD3e homodimer on chip;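 note: surface plasmon resonance at 25 degrees C, antibodies flowed as analyte over CD3 epsilon homodimer amine-coupled to a CM4 chip, running buffer HBS-EP+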

Row | ratio of amounts bound (altered form / unaltered GLS3000 antibody) | Binder
1 | 0.92 | B1
2 | 0.89 | B2
3 | 0.69 | B3
4 | 0.36 | B4
5 | 0.88 | B5
6 | 0.92 | B6
7 | 0.67 | B7
8 | 0.41 | B8
9 | 0.31 | B9
10 | 0.34 | B10
11 | 0.21 | B11
12 | 0.83 | B12
13 | 0.37 | B13
14 | 0.89 | B14
15 | 0.56 | B15
16 | 0.69 | B16

Row | ratio of amounts bound (altered form / unaltered GLS3000 antibody) | Binder
17 | 0.63 | B17
18 | 0.18 | B18
19 | 0.75 | B19
20 | 1.19 | B20
21 | 0.86 | B21
22 | 0.68 | B22
23 | 0.7 | B23
24 | 0.63 | B24
25 | 0.87 | B25
26 | 0.24 | B26
27 | 0.29 | B27
28 | 1.01 | B28
29 | 0.31 | B29
30 | 0.9 | B30
31 | 0.53 | B31
